Experiments:
Test in all cases: holdup assay
Design in all cases: key: below the threshold = too weak to quantify, mostly under pKd 3.1 to 4
[1] = biological target: T1, DFNB31_2, Q9P202
T1 sequence (Q9P202 274-371, limits assumed, looked up): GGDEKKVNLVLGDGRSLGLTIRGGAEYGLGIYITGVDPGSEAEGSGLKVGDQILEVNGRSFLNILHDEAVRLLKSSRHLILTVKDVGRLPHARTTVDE

[2] = biological target: NHERF2_2, Q15599
[3] = biological target: LNX1_2, Q8TBB1
[4] = biological target: DLG1_2, Q12959
[5] = biological target: MAGI2_2, Q86UL8
Chain of MAGI2_2, Q86UL8 (Q86UL8 410-522): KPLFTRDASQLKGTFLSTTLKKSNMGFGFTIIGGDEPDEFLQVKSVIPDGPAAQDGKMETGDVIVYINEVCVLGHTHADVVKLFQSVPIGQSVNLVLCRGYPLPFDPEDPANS

[6] = biological target: T2, GRIP1_7, Q9Y3R0
T2 sequence (Q9Y3R0 999-1096, limits assumed, looked up): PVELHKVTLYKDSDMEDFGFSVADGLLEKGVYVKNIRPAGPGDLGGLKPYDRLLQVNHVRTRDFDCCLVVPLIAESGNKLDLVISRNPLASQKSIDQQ

[7] = biological target: T3, NHERF3_4, Q5T2W1
T3 sequence (Q5T2W1 373-468, limits assumed, looked up): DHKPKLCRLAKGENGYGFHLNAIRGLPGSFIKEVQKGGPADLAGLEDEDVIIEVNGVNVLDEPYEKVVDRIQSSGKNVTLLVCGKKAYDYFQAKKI

[8] = biological target: T4, LIN7C, Q9NUP9
T4 sequence (Q9NUP9 88-185, limits assumed, looked up): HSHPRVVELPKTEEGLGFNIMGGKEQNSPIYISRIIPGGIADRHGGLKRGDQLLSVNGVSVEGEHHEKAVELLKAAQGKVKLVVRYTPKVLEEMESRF

[9] = biological target: T5, APBA1_2, Q02410
T5 sequence (Q02410 742-832, limits assumed, looked up): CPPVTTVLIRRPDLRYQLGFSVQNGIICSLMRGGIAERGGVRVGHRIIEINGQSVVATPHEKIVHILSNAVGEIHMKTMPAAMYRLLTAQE

[10] = biological target: DLG4_2, P78352
Chain of DLG4_2, P78352 (P78352 155-259): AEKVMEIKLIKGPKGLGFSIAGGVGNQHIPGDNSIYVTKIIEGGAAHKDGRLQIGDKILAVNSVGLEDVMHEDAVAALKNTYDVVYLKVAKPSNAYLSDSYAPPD

[11] = biological target: GIPC2, Q8TF65
Chain of GIPC2, Q8TF65 (Q8TF65 112-203): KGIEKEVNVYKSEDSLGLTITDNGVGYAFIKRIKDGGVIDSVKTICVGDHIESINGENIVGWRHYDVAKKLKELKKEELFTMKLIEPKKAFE

[12] = biological target: T6, DLG3_2, Q92796
T6 sequence (Q92796 221-321, limits assumed, looked up): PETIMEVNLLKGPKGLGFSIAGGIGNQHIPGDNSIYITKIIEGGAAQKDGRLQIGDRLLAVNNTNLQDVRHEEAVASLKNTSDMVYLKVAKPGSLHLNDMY

[13] = biological target: PDLIM1, O00151
Chain of PDLIM1, O00151 (O00151 1-87): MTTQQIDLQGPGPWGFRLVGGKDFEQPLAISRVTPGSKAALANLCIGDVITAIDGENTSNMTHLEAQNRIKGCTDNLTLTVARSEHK

[14] = biological target: DLG4_1, P78352
Chain of DLG4_1, P78352 (P78352 62-152): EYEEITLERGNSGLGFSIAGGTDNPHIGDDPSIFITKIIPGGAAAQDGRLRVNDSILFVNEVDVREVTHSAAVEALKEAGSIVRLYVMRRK

[15] = biological target: T7, HTRA3, P83110
T7 sequence (P83110 354-453, limits assumed, looked up): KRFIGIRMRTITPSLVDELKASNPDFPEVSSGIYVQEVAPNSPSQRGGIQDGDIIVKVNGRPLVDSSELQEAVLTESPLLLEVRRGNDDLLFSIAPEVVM

[16] = biological target: T8, SNTG2, Q9NY99
T8 sequence (Q9NY99 68-166, limits assumed, looked up): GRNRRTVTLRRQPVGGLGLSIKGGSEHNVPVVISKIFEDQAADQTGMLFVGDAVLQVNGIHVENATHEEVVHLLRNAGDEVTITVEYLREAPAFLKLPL

[17] = biological target: T9, RAPGEF6, Q8TEU7
T9 sequence (Q8TEU7 525-625, limits assumed, looked up): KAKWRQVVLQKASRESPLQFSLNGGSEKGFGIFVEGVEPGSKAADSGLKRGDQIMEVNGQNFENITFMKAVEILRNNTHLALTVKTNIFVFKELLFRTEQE

[18] = biological target: LDB3, O75112
Chain of LDB3, O75112 (O75112 1-94): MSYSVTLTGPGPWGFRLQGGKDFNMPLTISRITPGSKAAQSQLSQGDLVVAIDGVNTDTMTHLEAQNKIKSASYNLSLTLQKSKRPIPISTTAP

[19] = biological target: TJP2_1, Q9UDY2
Chain of TJP2_1, Q9UDY2 (Q9UDY2 24-128): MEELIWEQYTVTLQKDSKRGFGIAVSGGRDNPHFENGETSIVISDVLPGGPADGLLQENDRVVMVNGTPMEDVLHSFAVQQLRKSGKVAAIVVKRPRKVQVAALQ

[20] = biological target: T10, DLG3_3, Q92796
T10 sequence (Q92796 374-475, limits assumed, looked up): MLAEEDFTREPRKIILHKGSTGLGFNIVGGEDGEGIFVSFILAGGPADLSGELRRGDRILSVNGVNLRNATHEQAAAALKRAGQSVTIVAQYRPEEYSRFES

[21] = biological target: MAST1, Q9Y2H9
Chain of MAST1, Q9Y2H9 (Q9Y2H9 962-1065): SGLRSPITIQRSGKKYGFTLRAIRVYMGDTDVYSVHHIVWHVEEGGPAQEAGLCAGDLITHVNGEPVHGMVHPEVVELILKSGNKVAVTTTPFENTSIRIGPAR

[22] = biological target: MAGI2_4, Q86UL8
Chain of MAGI2_4, Q86UL8 (Q86UL8 772-865): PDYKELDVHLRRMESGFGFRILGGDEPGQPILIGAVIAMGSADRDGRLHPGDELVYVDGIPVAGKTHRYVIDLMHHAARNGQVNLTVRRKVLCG

[23] = biological target: T11, GRIP1_5, Q9Y3R0
T11 sequence (Q9Y3R0 568-668, limits assumed, looked up): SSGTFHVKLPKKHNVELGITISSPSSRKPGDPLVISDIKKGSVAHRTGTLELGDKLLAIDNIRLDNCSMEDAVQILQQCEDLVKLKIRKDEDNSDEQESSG

[24] = biological target: Inadl_10, Q8NI35
Chain of Inadl_10, Q8NI35 (Q8NI35 1673-1763): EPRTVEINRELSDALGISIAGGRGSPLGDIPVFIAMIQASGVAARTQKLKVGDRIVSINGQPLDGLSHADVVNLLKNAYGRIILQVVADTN

[25] = biological target: DLG1_3, Q12959
Chain of DLG1_3, Q12959 (Q12959 457-571): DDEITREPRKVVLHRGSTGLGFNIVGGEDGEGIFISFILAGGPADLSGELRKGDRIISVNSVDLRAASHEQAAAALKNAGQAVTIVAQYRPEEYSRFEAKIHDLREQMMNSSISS

[26] = biological target: NHERF4_2, Q86UT5
Chain of NHERF4_2, Q86UT5 (Q86UT5 220-308): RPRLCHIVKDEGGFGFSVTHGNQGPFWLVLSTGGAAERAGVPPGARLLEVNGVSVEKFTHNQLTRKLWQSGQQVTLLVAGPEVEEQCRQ

[27] = biological target: FRMPD3, Q5JV73
Chain of FRMPD3, Q5JV73 (Q5JV73 12-100): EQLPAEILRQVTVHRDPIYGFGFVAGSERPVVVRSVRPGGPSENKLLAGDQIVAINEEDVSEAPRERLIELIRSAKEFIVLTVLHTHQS

[28] = plain residues with an end cap or a label only (N-terminal biotin on a linker: ttds)
[29] = plain residues with an end cap or a label only (N-terminal biotin on a linker: ahx)

Chain of LNX1_2, Q8TBB1 (Q8TBB1 371-470): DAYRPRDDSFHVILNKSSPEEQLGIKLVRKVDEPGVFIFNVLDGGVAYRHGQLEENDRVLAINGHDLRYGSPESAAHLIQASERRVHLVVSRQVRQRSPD
Chain of NHERF2_2, Q15599 (Q15599 142-238): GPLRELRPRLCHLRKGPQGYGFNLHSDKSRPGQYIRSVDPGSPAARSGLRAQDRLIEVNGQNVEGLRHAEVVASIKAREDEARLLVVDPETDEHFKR
Chain of DLG1_2, Q12959 (Q12959 314-412): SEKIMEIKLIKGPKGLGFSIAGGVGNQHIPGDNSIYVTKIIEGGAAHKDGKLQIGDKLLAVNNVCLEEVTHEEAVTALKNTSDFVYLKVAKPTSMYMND

## IDNDTESTAL [ARHGAP17, Q68EM7]
[1]; [28]
  pKd: below the threshold
[2]; [28]
  pKd: 5.24
[3]; [28]
  pKd: below the threshold
[4]; [28]
  pKd: below the threshold
[5]; [28]
  pKd: below the threshold
[6]; [28]
  pKd: 3.51
[7]; [28]
  pKd: 4.78
[8]; [28]
  pKd: below the threshold
[9]; [28]
  pKd: 3.89
[10]; [28]
  pKd: below the threshold
[11]; [28]
  pKd: below the threshold
[12]; [28]
  pKd: below the threshold
[13]; [28]
  pKd: below the threshold
[14]; [28]
  pKd: below the threshold
[15]; [28]
  pKd: below the threshold
[16]; [28]
  pKd: 3.8
[17]; [28]
  pKd: below the threshold
[18]; [28]
  pKd: below the threshold
[19]; [28]
  pKd: below the threshold
[20]; [28]
  pKd: below the threshold
[21]; [28]
  pKd: 4.91
[22]; [28]
  pKd: below the threshold
[23]; [28]
  pKd: below the threshold
[24]; [28]
  pKd: below the threshold
[25]; [28]
  pKd: below the threshold
[26]; [28]
  pKd: below the threshold
[27]; [28]
  pKd: below the threshold

## TEAKLTETNA [MYO18A, Q92614]
[1]; [29]
  pKd: below the threshold
[2]; [29]
  pKd: below the threshold
[3]; [29]
  pKd: below the threshold
[4]; [29]
  pKd: below the threshold
[5]; [29]
  pKd: below the threshold
[6]; [29]
  pKd: below the threshold
[7]; [29]
  pKd: below the threshold
[8]; [29]
  pKd: below the threshold
[9]; [29]
  pKd: below the threshold
[10]; [29]
  pKd: below the threshold
[11]; [29]
  pKd: below the threshold
[12]; [29]
  pKd: below the threshold
[13]; [29]
  pKd: below the threshold
[14]; [29]
  pKd: below the threshold
[15]; [29]
  pKd: below the threshold
[16]; [29]
  pKd: below the threshold
[17]; [29]
  pKd: below the threshold
[18]; [29]
  pKd: below the threshold
[19]; [29]
  pKd: below the threshold
[20]; [29]
  pKd: below the threshold
[21]; [29]
  pKd: below the threshold
[22]; [29]
  pKd: below the threshold
[23]; [29]
  pKd: below the threshold
[24]; [29]
  pKd: below the threshold
[25]; [29]
  pKd: below the threshold
[26]; [29]
  pKd: below the threshold
[27]; [29]
  pKd: below the threshold

## GQDSREETQL [KCNT2, Q6UVM3]
[1]; [28]
  pKd: below the threshold
[2]; [28]
  pKd: 5.17
[3]; [28]
  pKd: below the threshold
[4]; [28]
  pKd: 4.2
[5]; [28]
  pKd: below the threshold
[6]; [28]
  pKd: below the threshold
[7]; [28]
  pKd: below the threshold
[8]; [28]
  pKd: below the threshold
[9]; [28]
  pKd: 3.79
[10]; [28]
  pKd: 3.62
[11]; [28]
  pKd: 3.79
[12]; [28]
  pKd: 4
[13]; [28]
  pKd: below the threshold
[14]; [28]
  pKd: below the threshold
[15]; [28]
  pKd: below the threshold
[16]; [28]
  pKd: 4.39
[17]; [28]
  pKd: below the threshold
[18]; [28]
  pKd: below the threshold
[19]; [28]
  pKd: below the threshold
[20]; [28]
  pKd: below the threshold
[21]; [28]
  pKd: 5.14
[22]; [28]
  pKd: below the threshold
[23]; [28]
  pKd: below the threshold
[24]; [28]
  pKd: below the threshold
[25]; [28]
  pKd: below the threshold
[26]; [28]
  pKd: below the threshold
[27]; [28]
  pKd: below the threshold

## VLRLQSETSV [VANGL1, Q8TAA9]
[1]; [28]
  pKd: below the threshold
[2]; [28]
  pKd: 3.75
[3]; [28]
  pKd: below the threshold
[4]; [28]
  pKd: 4.86
[5]; [28]
  pKd: 4.47
[6]; [28]
  pKd: 3.73
[7]; [28]
  pKd: below the threshold
[8]; [28]
  pKd: 3.94
[9]; [28]
  pKd: 3.6
[10]; [28]
  pKd: 4.71
[11]; [28]
  pKd: 3.75
[12]; [28]
  pKd: 4.64
[13]; [28]
  pKd: below the threshold
[14]; [28]
  pKd: 4.4
[15]; [28]
  pKd: below the threshold
[16]; [28]
  pKd: 4.53
[17]; [28]
  pKd: below the threshold
[18]; [28]
  pKd: below the threshold
[19]; [28]
  pKd: below the threshold
[20]; [28]
  pKd: 4.7
[21]; [28]
  pKd: below the threshold
[22]; [28]
  pKd: 4.42
[23]; [28]
  pKd: below the threshold
[24]; [28]
  pKd: below the threshold
[25]; [28]
  pKd: 4.63
[26]; [28]
  pKd: below the threshold
[27]; [28]
  pKd: below the threshold

## QSARYRDTEL [TJP2, Q9UDY2]
[1]; [28]
  pKd: below the threshold
[2]; [28]
  pKd: 4.12
[3]; [28]
  pKd: 3.52
[4]; [28]
  pKd: 3.77
[5]; [28]
  pKd: below the threshold
[6]; [28]
  pKd: 3.82
[7]; [28]
  pKd: 3.81
[8]; [28]
  pKd: below the threshold
[9]; [28]
  pKd: below the threshold
[10]; [28]
  pKd: 3.83
[11]; [28]
  pKd: below the threshold
[12]; [28]
  pKd: below the threshold
[13]; [28]
  pKd: 3.69
[14]; [28]
  pKd: 3.52
[15]; [28]
  pKd: 3.54
[16]; [28]
  pKd: 3.84
[17]; [28]
  pKd: 3.55
[18]; [28]
  pKd: below the threshold
[19]; [28]
  pKd: below the threshold
[20]; [28]
  pKd: below the threshold
[21]; [28]
  pKd: 4.26
[22]; [28]
  pKd: 3.74
[23]; [28]
  pKd: below the threshold
[24]; [28]
  pKd: below the threshold
[25]; [28]
  pKd: 3.83
[26]; [28]
  pKd: below the threshold
[27]; [28]
  pKd: below the threshold

Source: PMC9482650, “Quantitative fragmentomics allow affinity mapping of interactomes” (Nature Communications, 2022)
